# Data taken from publication PMC2898215.
# Biological target: streptavidin (UniProt P22629 25-183)
# Assay: capillary electrophoresis
# streptavidin, sequence (P22629 25-183): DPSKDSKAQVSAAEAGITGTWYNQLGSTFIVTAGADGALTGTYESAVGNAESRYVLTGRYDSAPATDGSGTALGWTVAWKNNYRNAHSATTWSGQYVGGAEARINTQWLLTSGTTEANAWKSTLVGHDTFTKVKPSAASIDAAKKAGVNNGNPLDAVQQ
row,Binder,binding signal [% bound]
1,CACGTAACGCATACGCCGCAGTATTTATGTG (structured_DNA) [S10-101 minimal],> 70
2,CAAACCTCGCGCCGATTGCAGGCAGGTTTG (structured_DNA) [S10-113 minimal],50
3,CTGTGAGACGACGCACCGGTCGCAGGTTTTGTCTCACAG (structured_DNA) [NRR],33
4,TAGGACAAACGCACACGGCGCAGTGTTTTGACCTA (structured_DNA) [S10-103 minimal],48
5,CATATTTAGCGCGTGTGTCGCAACACCTATATATG (structured_DNA) [S10-104 minimal],53
6,CTTGTGTTTGCTCCCCGACGCAGGGGACACAAG (structured_DNA) [S10-115 minimal],60
